Our source for the Kd values is publication PMC4405178 (Biochemistry, 2015).

Assay in all cases: flow cytometry on cells
For test [1], the target named is T1, C-terminally truncated Ste2p V49D (Saccharomyces cerevisiae, UniProt D6VTK4 1-303, V49D).
T1 sequence (looked up): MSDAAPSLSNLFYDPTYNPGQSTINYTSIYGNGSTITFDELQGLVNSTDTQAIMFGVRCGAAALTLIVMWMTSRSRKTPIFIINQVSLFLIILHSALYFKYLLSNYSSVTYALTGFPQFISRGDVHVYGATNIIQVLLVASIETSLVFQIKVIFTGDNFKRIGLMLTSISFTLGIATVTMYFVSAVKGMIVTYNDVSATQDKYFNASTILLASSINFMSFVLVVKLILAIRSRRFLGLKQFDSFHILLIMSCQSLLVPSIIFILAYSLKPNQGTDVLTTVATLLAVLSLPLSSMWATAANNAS

The target in the next test is T2, full-length Ste2p V49D (Saccharomyces cerevisiae, UniProt D6VTK4 1-431, V49D).
T2 sequence (looked up): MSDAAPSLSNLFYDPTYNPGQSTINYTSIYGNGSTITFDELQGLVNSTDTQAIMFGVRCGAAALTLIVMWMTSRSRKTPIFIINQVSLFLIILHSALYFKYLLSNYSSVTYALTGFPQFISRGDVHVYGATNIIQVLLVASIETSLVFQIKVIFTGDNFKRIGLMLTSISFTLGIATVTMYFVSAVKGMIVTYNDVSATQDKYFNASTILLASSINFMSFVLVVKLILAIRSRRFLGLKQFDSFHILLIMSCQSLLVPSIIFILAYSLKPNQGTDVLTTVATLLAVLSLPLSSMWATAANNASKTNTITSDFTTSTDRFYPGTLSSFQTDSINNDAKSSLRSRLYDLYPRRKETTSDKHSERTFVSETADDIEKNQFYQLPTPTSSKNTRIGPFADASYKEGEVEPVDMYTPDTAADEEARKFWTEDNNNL

Test [2] concerns the target T3, full-length wild-type Ste2p (Saccharomyces cerevisiae, UniProt D6VTK4 1-431).
T3 sequence (looked up): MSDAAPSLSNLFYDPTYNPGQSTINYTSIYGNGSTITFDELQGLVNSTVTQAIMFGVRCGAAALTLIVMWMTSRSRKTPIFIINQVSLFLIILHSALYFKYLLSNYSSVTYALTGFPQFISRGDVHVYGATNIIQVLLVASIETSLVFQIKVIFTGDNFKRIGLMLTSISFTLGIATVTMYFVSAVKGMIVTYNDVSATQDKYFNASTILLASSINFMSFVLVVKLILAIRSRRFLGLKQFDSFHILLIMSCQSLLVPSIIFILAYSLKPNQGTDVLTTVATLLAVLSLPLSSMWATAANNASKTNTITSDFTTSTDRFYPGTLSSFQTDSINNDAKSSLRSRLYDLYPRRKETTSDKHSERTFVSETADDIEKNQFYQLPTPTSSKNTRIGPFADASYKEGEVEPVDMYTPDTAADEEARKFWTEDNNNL

For test [3], the target named is T4, C-terminally truncated Ste2p F38Y (Saccharomyces cerevisiae, UniProt D6VTK4 1-303, F38Y).
T4 sequence (looked up): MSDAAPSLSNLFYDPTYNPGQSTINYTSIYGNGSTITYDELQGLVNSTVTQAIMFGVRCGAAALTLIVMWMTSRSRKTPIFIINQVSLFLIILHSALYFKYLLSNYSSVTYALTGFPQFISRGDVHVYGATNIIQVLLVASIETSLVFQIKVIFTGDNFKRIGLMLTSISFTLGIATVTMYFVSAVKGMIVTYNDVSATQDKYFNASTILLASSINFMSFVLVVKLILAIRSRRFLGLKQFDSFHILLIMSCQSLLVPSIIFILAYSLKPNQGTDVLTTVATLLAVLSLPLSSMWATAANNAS

Test [4] concerns the target T5, C-terminally truncated wild-type Ste2p (Saccharomyces cerevisiae, UniProt D6VTK4 1-303).
T5 sequence (looked up): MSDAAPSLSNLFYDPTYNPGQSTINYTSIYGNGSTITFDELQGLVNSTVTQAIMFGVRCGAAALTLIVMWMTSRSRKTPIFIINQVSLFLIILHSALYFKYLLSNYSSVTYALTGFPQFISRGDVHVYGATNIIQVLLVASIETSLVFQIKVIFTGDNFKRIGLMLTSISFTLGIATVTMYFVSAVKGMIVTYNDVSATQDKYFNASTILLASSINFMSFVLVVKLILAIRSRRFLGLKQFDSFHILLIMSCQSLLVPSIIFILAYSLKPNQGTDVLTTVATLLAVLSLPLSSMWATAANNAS

The target of test [5] is T6, C-terminally truncated Ste2p H94Y (Saccharomyces cerevisiae, UniProt D6VTK4 1-303, H94Y).
T6 sequence (looked up): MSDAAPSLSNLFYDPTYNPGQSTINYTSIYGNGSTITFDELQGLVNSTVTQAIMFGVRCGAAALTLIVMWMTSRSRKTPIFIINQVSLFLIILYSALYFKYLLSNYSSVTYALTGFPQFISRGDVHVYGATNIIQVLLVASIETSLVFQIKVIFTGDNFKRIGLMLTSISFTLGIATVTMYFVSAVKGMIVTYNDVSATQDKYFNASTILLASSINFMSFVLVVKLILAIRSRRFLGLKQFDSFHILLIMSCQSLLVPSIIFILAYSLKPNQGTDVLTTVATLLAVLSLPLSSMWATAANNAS

B1: [K^7(NBD),Nle^12] α-factor (peptide)
chain: WHWLQLKPGQPMY
modifications: NBD (7-nitrobenz-2-oxa-1,3-diazol-4-yl) conjugated to the lysine at position 7; norleucine at position 12 in place of methionine
With B1, the Kd turned out to be 35 ± 4 nM in test [1]; 49 ± 20 nM with full-length Ste2p V49D; 28 ± 4.7 nM in test [2]; 64 ± 7.9 nM in test [3]; 45 ± 1.7 nM in test [4]; 90 ± 12 nM in test [5].
